Biological target: GluA2 AMPAR (expressed in HEK293T) (UniProt P23819)
Assay: SPR

UniProt P23819, sequence (P23819 25-883): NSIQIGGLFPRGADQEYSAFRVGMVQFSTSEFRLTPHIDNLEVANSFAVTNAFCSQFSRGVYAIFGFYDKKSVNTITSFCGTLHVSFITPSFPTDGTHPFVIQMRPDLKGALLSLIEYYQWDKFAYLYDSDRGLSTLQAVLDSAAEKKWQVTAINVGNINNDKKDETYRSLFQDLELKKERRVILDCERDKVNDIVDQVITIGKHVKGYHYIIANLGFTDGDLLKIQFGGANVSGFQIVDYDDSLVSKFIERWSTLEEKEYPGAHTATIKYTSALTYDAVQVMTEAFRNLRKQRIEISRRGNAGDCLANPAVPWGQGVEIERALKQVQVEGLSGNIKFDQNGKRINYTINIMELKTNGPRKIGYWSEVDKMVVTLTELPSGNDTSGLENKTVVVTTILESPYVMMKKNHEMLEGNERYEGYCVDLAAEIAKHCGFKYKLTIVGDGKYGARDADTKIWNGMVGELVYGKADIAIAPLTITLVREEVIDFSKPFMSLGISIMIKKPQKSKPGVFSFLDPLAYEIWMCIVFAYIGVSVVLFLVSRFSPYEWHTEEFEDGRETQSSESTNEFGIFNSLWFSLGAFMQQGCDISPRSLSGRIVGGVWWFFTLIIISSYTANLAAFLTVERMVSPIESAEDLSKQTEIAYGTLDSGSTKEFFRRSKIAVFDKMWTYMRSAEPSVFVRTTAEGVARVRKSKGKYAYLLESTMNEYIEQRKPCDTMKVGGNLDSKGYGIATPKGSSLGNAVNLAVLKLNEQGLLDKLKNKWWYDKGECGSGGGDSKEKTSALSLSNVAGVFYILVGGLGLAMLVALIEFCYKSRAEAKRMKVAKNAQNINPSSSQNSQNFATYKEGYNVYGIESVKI

Question: For “Noelin1-3 (untagged, expressed in HEK293T) (natural protein)”, which Kd is on record?
Answer: The Kd was 1 nM.

Question: What about the koff of the same substance?
Answer: The koff was 0.002 s⁻¹.

Source: article PMC6088136
